This test concerns the target T1, VEGFR2/KDR ECD (Homo sapiens, UniProt P35968).
T1 chain: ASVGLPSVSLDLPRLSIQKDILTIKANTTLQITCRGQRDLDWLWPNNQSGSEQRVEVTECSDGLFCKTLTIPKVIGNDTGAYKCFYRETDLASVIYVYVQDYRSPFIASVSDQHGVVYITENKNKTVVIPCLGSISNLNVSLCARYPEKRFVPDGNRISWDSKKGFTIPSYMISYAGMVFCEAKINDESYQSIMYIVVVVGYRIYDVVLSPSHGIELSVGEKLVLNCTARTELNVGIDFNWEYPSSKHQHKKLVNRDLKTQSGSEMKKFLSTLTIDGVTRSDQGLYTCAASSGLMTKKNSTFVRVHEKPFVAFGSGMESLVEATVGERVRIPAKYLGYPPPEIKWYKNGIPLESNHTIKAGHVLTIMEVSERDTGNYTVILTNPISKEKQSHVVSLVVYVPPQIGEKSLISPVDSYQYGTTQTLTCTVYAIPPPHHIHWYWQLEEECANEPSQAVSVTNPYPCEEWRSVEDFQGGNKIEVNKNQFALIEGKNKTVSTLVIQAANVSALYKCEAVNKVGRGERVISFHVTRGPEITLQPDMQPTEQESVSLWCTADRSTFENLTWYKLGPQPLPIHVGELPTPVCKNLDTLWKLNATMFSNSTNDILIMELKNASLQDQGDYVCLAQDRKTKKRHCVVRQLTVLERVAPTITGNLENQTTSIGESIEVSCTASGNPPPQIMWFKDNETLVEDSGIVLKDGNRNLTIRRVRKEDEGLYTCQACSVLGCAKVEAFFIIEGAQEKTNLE
The test is described as follows: SPR. A general note: Surface plasmon resonance follows binding to a sensor surface in real time, without labels.

B1: VEGF-A165 (protein)
chain: MTDRQTDTAPSPSYHLLPGRRRTVDAAASRGQGPEPAPGGGVEGVGARGVALKLFVQLLGCSRFGGAVVRAGEAEPSGAARSASSGREEPQPEEGEEEEEKEEERGPQWRLGARKPGSWTGEAAVCADSAPAARAPQALARASGRGGRVARRGAEESGPPHSPSRRGSASRAGPGRASETMNFLLSWVHWSLALLLYLHHAKWSQAAPMAEGGGQNHHEVVKFMDVYQRSYCHPIETLVDIFQEYPDEIEYIFKPSCVPLMRCGGCCNDEGLECVPTEESNITMQIMRIKPHQGQHIGEMSFLQHNKCECRPKKDRARQEKKSVRGKGKGQKRKRKKSRYKSWSVPCGPCSERRKHLFVQDPQTCKCSCKNTDSRCKARQLELNERTCRCDKPRR
The molecule B1 had a Kd of 0.041 nM.

B2: HIV-Tat (protein)
chain: MEPVDPRLEPWKHPGSQPKTACTNCYCKKCCFHCQVCFITKALGISYGRKKRRQRRRAPQGSQTHQVSLSKQPTSQSRGDPTGPKE
For the molecule B2, the Kd came to 0.07 nM.

What is called Kd is the constant that tells how readily two partners part at equilibrium. Read a high Kd as a looser complex.

These data come from PMC3312455 (2009).
